According to patent US20190194319A1 (AbbVie / Abbott, published 2019):

T1: human ASCL1 (Achaete-scute homolog 1) (human, UniProt P50553 1-236)
T1 construct: also called hASCL1; immobilized human ASCL1
T1 sequence: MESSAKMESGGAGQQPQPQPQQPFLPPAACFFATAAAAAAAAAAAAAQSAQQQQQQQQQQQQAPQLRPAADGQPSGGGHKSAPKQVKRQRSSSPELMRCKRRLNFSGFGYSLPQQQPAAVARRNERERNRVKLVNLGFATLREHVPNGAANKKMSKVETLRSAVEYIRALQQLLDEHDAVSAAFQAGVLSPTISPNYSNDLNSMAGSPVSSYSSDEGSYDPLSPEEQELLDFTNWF

T2: hASCL1 expressed in HEK-293T cells (pLMEGPA-hASCL1-NFlag) (human, UniProt P50553 1-236)
T2 construct: also called HEK293T cells transiently transduced with hASCL1; ASCL1 engineered cells
T2 sequence: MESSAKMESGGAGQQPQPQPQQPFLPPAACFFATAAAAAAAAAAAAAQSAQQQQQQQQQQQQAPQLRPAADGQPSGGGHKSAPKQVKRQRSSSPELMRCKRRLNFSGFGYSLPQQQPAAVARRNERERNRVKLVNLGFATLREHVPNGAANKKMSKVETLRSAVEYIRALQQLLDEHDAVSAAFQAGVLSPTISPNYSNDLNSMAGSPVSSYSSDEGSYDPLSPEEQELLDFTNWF


Experiments:
[1] = target: T1, human ASCL1 (Achaete-scute homolog 1); test: screening of Example 2 (ELISA) or cells
[2] = target: T2, hASCL1 expressed in HEK-293T cells …; test: intracellular flow cytometry (gMFI) on permeabilised HEK293T cells transduced with hASCL1, control cells transduced with GFP only; antibody 10 ug/ml
Method: 1×10⁵ per well of HEK293T cells transiently transduced with hASCL1(as described in Example 1), and HEK293T cells transiently transduced with GFP only were washed with cold PBS and then incubated with a solution of PBS and a Dylight 450 Fixable viability dye for 30 minutes. After incubation, the cells were washed twice with PBS. To permeate the cell walls 100 ul of BD Cytofix/Cytoperm was added to the cells and left to incubate for 20 minutes on ice. Cells were then washed with BD Phosflow perm/wash solution. Purified antibody at a final concentration of 10 ug/ml was then added to the cells in 45 ul of BD Phosflow perm/wash solution, incubated on ice for 30 minutes, and then washed with BD Phosflow perm/wash 2 times. 50 ul of Alexa Fluor 647 conjugated Goat-anti-mouse IgG secondary antibody, was added at 1 ug/ml dissolved in BD Phosflow perm/wash and incubated on ice for 30 minutes, then washed with BD Phosflow perm/wash 3 times. The cells were then resuspended in FACS buffer to be read on BD FACS Canto according to the manufacturer's instructions.
The FlowJo software package (FlowJo LLC) was used to calculate gMFI (geometric Mean Fluorescence Intensity) for each of the anti-ASCL1 antibodies.

[3] = target: T1, human ASCL1 (Achaete-scute homolog 1); test: ELISA with purified antibody: staining against hASCL1 divided by staining against an irrelevant protein (form of the coated hASCL1 not stated in paragraph 180; the screen it confirms used hASCL1-GST)
Method: A second immunization campaign was conducted similar to the first with the following modifications: 1) 299×10⁶ cells) were fused with non-secreting SP2/0-Ag14 myeloma cells (ATCC #CRL-1581) at a ratio of 1:1 by electro cell fusion using a model BTX Hybrimmune System (BTX Harvard Apparatus). On day 6, after the fusion, the hybridoma cells were not frozen and were sorted on that day. After the 10 day culture, 6×384 clones were screened by ELISA selecting for antibodies positive to hASCL1-GST (glutathione S-transferase) and counter screened against an irrelevant protein tagged with GST. As part of this, ALK phosphatase-labeled goat anti-mouse IgG diluted 1:5000 in PBSA was used instead of HRP-labeled goat anti-mouse IgG diluted 1:10:000. ELISA samples were analyzed at OD405 instead of OD450.
To confirm the results of the ELISA soup screen a similar ELISA was run on purified antibodies from selected clones. The ELISA positive ratio, (defined as ELISA staining against hASCL1 divided by the ELISA staining against an irrelevant protein) was then determined and set forth in FIG. 3 in the column labeled “ELISA positive ratio”.

| binding result [1] | IC ratio [2] | ELISA positive ratio [3] | Binder |
| --- | --- | --- | --- |
| binds | – | – | SC72.52 (antibody, V domains shown, Murine monoclonal antibody from a hybridoma; light chain amplified with kappa primers) VH: QVQLQQPGSVLVRPGASVKLSCKASGYTFTSYWMHWVKQRPGQGLEWIGEIYPNSGRTNYNEKFKGKATLTVDTSSSTAYVDLSSLTSEDSAVYYCHYYDDNYGYWGQGTTLTVSS VL: DIVITQDELSNPVTSGESVSISCRSSKSLLYKDGKTYLNWFLQRPGQSPQLLIYLMSTRASGVSDRFSGSGSGTDFTLEISRVKAEDVGVYYCQQFVEYPLTFGAGTKLELK |
| – | 0.67 | 11.7 | SC72.201 (antibody, V domains shown, Murine monoclonal antibody from a hybridoma of the second immunization campaign; light chain amplified with kappa primers) VH: EVNLEESGGGLVQPGGSMKLSCVASGFTFSNYWMNWVRQSPEKGLEWVAQIRSKSDNYATHYAESVKGRFTISRDDSKSSVYLQMNNLRSEDTGIYYCRTGPDVWGTGTTVTVSS VL: DIQMTQSPASLSVSVGETVTITCRASENIYSSLAWYQQKQGNSPQLLVYAATKLADGVPSRFSGSGSGTQYSLKINSLQSEDFGSYYCQHFWGTTWTFGGGTKLEIK |
| binds | – | – | SC72.76 (antibody, V domains shown, Murine monoclonal antibody from a hybridoma; light chain amplified with kappa primers) VH: QVQLKESGPGLVAPSQSLSITCTVSDFSLTNYAVHWVRQSPGKGLEWLGVIWSDGNTDYNAPFISRLSISKDNSKSQVFFKMNSLQADDTAIYYCASYGDSAYWGQGTLVTVSA VL: DIVLTQSPASLTVSLGQRATISCRASQSVRTSNYSYMHWYQQKPGQPPKLLIKYASNLESGVPARFSGSGSGTDFTLNIHPVEEEDTATYYCQHHWEIPFTFGGGTKLEIK |
| binds | – | – | SC72.91 (antibody, V domains shown, Murine monoclonal antibody from a hybridoma; light chain amplified with kappa primers) VH: QVQLQQSGPEVVKPGASVKLSCKASGYTFTTYDINWVKQRPGQGLEWIGWIYFRDGTNKYNEKFKGKATLTVDTSSSTAYMELHSLTSEDSAVYFCASVYDGYYVSGFDIMDYWGQGTSVTVSS VL: DVVLTQTPLSLPVSLGDQASIYCRSSQSIVHSNGNTYFEWYLQKPGQSPKLLIYKVSNRLSGVPDRFSGSGSGTDFTLKISRVEAVDLGIYYCFQASHVPFTFGAGTKLELK |
| – | 1.86 | 13 | SC72.216 (antibody, V domains shown, Murine monoclonal antibody from a hybridoma of the second immunization campaign; light chain amplified with kappa primers) VH: QIQLVQSGPELRKPGETVKISCKASGYTFTNYPMHWVKQAPGKGFKWMGWINTYSGVPSYADDFKGRFAFSLETSASSAYLQINNLKNEDMATYFCARHNYNSYDVFAYWGQGTLVTVSA VL: DIVVTQSPASLAVSLGQRATISCKASQSVDYDGDSYMNWYQQKPGQPPKLLIYGASNLESGIPARFSGSGSGTDFTLNIHPVEEEDAATYYCQQSNEDPYTFGGGTKLEIK |
| – | 3.69 | 14.2 | SC72.165 (antibody, V domains shown, Murine monoclonal antibody from a hybridoma; light chain amplified with kappa primers) VH: QVQLQQPGAELVRPGASVRLSCKASGYSFTSYWINWVKQRPGQGLEWIGNIYPGSSNTNYNEKFKRKATLTVDTSSSTAYMQLSSLTSDDSAVYYCARSESDYWGQGTTLTVSS VL: DIVLTQSPASLAVSPGQRATISCKASQSVGYDGDTYLSWYQQKPGQPPKLLIYGVSILESGIPARFSGSGSGTDFTLNIHPVEEEDAATYYCQQSSEDPYTFGGGTKLEIK |
| binds | – | – | SC72.181 (antibody, V domains shown, Murine monoclonal antibody from a hybridoma; light chain amplified with kappa primers) VH: QVQLQQPGAEVVKPGASVRLSCKASGYTFTSYWINWVKQRPGQGLEWIGNIYPGSSSTNYNEKFKSKATLTVDTSSSTAYMQLSSLTSDDSAVYYCSRSESDYWGQGTTLTVSS VL: DIVLTQSPASLAVSLGQRATISCKASQSVDDDGGTYMSWYQQKPGQPPKLLIYGVFILESGIPARFSGSGSGTDFTLNIHPVEEEDAATYYCQQSNEDPYTFGGGTKLEIK |
| binds | – | – | SC72.96 (antibody, V domains shown, Murine monoclonal antibody from a hybridoma; light chain amplified with kappa primers) VH: EVQLQQSGPELVKPGASVKMSCKASGYTLTAYNIHWVKQSHGKSLEWIGFINPHSGGTTYNEKFKGKATLTVNKSSSTANMELRSLTSEDSAVYYCASIYYYGSSYFDHWGQGTTLTVSS VL: DIQMTQSPASLSASVGETVTMTCRASENIHSNLVWYQQKQGKSPQLLVYAATNLADGVPSRFSGSGSGSQFSLKIDSLQPEDFGSYLCQHFYGTPRTFGGGTKLEIK |
| binds | – | – | SC72.132 (antibody, V domains shown, Murine monoclonal antibody from a hybridoma; light chain amplified with kappa primers) VH: EVKLVESEGGLVQPGSSMKLSCTASGFTFSDYYMAWVRQVPEKGLEWVATIDYDGSNTYYLDSLKSRFIISRDNAKNILYLQMSSLKSEDTATYYCARDGGYDEDYFDYWGQGTTLTVSS VL: DIVMSQSPSSLAVSVGEKVTLSCKSSQTLLYSSNQQNYLAWYQQKPGQSPKLLIYWASTRESGVPDRFTGSGSGTDFTLTISSVKAEDLAVYYCHQYYTYPFTFGSGTKLEIK |
| binds | – | – | SC72.63 (antibody, V domains shown, Murine monoclonal antibody from a hybridoma; light chain amplified with kappa primers) VH: EVQLLQSGPELVKPGASVKMSCKASGYTLTDYNLHWVKQSHAKSLEWIGYINPYNGVTSYNQRFKGKATLTVNKSSSTAFMEFRSLTSEDSAVYYCVSLYYGDDPFACWGQGTLVTVST VL: DIQMTQSPASLSASVGETVTMTCRASENIYSNLAWYQQKQGKSPQLLVYAATNLADDVPSRFSGSGSGTQFSLKINSLQPEDFGIYYCHHFYGSPLTFGAGTKLELK |
| binds | – | – | SC72.93 (antibody, V domains shown, Murine monoclonal antibody from a hybridoma; same VL as SC72.2; light chain amplified with kappa primers) VH: QVQLQQSGAELVRPGASVTLSCKASGYIFIDYEMHWVKQTPVHGLEWIGSIDPETGDTVYNQKFKGKATLTADKSSSTAYMELRSLTSEDSAVYYCSRGGLDYWGQGTTLTVSS VL: not shown |
| binds | – | – | SC72.94 (antibody, V domains shown, Murine monoclonal antibody from a hybridoma; light chain amplified with kappa primers) VH: QVQLQQPGTELVKPGASVKLSCKASAYTFTSLWIHWVKQRPGQGLEWIGDINPSIGDTYYNERFKSKATLTVDKSSSTAYMQLSSLTSEDSAVYYCTTGDSWGQGTTLTVSS VL: DIQMNQSPSSLSASLGDTITITCRASQGISIWLSWYQQKPGNIPKLLIYKASNLHTGVPPSFSGSGSGTDFTLTISSLQPEDIATYYCLQSQSYPWTFGGGTKLEIK |
| binds | – | – | SC72.28 (antibody, V domains shown, Murine monoclonal antibody from a hybridoma; light chain amplified with kappa primers) VH: DVQLQQSGAELVRPGALVKLSCKASGFNIKDYLIHWVKQRPEQGLEWIGCIDPENGNTIYDPRFQGKAKITSDTSSTTAYLRLTSLTSEDTAVYYCGRGGLDYWGQGTTLTVSS VL: not shown |
